Measurements taken from IntAct's records for PubMed 20562859.

What was measured:
kbtb6_human KBTBD6 = target: T1, kbtb6_human KBTBD6 (UniProt Q86V97)
T1 sequence: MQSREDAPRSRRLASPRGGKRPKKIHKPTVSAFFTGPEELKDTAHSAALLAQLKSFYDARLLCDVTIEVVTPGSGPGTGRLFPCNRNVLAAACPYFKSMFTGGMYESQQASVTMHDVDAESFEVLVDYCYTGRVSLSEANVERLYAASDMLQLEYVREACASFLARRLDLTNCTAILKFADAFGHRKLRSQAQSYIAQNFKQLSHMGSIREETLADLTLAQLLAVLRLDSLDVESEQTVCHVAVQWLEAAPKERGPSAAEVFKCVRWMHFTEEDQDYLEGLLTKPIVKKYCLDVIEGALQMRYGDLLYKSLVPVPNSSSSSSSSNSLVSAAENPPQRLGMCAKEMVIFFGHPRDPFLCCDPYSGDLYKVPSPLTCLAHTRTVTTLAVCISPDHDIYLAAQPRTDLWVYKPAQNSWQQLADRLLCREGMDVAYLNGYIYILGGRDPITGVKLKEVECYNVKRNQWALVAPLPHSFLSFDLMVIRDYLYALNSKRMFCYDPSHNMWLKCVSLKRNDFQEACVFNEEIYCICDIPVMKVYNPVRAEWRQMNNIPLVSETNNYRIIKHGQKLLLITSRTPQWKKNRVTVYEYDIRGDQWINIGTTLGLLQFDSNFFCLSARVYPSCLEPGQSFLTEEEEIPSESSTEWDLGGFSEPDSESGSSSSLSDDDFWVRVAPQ

echa_human HADHA = echa_human HADHA (UniProt P40939)
rasf3_human RASSF3 = target: T2, rasf3_human RASSF3 (UniProt Q86WH2)
T2 sequence: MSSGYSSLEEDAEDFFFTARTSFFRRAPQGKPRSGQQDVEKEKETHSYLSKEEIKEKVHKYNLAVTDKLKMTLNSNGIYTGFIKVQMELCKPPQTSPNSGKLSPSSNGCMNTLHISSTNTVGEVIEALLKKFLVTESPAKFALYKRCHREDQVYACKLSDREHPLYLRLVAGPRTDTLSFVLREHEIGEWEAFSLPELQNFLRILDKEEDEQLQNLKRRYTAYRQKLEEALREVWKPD

tbc15_human TBC1D15 = target: T3, tbc15_human TBC1D15 (UniProt Q8TC07)
T3 sequence: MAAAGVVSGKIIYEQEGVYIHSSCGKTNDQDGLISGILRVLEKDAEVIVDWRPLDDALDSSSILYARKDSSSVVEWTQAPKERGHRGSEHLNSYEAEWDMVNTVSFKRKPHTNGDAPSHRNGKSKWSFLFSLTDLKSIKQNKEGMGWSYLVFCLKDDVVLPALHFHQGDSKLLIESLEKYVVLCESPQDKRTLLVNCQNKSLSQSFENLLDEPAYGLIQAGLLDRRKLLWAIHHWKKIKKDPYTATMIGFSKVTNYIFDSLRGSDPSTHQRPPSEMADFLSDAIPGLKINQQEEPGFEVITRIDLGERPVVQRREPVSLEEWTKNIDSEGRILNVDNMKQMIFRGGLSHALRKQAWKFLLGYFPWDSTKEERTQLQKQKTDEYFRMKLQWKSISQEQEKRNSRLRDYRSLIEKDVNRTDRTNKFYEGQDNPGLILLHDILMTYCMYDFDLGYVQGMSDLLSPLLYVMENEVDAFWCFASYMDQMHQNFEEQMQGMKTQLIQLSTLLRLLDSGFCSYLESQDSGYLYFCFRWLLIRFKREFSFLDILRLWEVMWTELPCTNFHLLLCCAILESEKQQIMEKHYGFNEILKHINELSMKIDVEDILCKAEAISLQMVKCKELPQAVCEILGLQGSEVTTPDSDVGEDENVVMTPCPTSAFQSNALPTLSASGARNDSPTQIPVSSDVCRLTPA

rn123_human RNF123 = target: T4, rn123_human RNF123 (UniProt Q5XPI4)
T4 sequence: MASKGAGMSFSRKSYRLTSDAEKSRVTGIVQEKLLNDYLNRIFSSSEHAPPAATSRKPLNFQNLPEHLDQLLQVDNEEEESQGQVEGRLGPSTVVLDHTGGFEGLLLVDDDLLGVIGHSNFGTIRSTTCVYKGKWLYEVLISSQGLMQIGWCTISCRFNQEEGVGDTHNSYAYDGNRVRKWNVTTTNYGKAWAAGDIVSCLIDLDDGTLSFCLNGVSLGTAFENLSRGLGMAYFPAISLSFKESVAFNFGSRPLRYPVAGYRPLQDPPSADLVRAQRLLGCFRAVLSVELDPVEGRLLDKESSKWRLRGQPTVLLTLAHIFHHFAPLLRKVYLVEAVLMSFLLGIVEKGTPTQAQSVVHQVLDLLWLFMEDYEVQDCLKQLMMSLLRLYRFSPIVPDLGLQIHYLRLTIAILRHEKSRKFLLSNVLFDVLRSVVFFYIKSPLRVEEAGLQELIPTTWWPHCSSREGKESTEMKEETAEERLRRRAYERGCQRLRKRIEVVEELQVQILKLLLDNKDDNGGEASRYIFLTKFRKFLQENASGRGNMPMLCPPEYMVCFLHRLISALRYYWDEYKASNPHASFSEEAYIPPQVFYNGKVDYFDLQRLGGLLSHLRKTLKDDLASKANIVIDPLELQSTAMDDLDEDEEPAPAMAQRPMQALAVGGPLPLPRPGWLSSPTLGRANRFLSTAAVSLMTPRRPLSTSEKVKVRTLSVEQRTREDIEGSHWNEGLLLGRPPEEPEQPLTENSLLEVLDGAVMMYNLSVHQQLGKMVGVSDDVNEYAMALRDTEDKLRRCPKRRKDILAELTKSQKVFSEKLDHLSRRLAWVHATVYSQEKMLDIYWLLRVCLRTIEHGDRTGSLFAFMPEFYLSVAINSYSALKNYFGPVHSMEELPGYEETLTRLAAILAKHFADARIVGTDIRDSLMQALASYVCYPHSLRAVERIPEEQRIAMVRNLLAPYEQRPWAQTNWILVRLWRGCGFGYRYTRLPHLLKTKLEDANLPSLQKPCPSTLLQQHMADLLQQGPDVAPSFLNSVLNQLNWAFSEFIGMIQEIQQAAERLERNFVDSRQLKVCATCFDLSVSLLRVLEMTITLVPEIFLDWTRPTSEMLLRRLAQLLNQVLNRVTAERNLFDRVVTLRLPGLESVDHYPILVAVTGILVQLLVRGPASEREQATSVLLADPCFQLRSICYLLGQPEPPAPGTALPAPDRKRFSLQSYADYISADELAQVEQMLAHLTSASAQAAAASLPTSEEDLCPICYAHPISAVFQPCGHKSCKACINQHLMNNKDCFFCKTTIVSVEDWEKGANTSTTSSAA

atg2a_human ATG2A = atg2a_human ATG2A (UniProt Q2TAZ0)
uba5_human UBA5 = uba5_human UBA5 (UniProt Q9GZZ9)
Sequence of uba5_human UBA5 (Q9GZZ9 whole entry): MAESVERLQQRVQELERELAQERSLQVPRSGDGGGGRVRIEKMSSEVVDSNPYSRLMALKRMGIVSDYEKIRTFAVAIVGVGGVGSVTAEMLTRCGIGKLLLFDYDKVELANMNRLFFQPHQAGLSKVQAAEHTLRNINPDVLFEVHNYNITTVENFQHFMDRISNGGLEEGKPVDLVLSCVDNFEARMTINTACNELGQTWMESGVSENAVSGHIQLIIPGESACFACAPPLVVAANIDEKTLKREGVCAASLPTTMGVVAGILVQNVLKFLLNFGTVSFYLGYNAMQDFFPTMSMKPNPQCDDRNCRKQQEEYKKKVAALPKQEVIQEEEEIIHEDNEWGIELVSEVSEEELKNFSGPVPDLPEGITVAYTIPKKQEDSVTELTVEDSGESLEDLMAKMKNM

Sequence of atg2a_human ATG2A (Q2TAZ0 whole entry): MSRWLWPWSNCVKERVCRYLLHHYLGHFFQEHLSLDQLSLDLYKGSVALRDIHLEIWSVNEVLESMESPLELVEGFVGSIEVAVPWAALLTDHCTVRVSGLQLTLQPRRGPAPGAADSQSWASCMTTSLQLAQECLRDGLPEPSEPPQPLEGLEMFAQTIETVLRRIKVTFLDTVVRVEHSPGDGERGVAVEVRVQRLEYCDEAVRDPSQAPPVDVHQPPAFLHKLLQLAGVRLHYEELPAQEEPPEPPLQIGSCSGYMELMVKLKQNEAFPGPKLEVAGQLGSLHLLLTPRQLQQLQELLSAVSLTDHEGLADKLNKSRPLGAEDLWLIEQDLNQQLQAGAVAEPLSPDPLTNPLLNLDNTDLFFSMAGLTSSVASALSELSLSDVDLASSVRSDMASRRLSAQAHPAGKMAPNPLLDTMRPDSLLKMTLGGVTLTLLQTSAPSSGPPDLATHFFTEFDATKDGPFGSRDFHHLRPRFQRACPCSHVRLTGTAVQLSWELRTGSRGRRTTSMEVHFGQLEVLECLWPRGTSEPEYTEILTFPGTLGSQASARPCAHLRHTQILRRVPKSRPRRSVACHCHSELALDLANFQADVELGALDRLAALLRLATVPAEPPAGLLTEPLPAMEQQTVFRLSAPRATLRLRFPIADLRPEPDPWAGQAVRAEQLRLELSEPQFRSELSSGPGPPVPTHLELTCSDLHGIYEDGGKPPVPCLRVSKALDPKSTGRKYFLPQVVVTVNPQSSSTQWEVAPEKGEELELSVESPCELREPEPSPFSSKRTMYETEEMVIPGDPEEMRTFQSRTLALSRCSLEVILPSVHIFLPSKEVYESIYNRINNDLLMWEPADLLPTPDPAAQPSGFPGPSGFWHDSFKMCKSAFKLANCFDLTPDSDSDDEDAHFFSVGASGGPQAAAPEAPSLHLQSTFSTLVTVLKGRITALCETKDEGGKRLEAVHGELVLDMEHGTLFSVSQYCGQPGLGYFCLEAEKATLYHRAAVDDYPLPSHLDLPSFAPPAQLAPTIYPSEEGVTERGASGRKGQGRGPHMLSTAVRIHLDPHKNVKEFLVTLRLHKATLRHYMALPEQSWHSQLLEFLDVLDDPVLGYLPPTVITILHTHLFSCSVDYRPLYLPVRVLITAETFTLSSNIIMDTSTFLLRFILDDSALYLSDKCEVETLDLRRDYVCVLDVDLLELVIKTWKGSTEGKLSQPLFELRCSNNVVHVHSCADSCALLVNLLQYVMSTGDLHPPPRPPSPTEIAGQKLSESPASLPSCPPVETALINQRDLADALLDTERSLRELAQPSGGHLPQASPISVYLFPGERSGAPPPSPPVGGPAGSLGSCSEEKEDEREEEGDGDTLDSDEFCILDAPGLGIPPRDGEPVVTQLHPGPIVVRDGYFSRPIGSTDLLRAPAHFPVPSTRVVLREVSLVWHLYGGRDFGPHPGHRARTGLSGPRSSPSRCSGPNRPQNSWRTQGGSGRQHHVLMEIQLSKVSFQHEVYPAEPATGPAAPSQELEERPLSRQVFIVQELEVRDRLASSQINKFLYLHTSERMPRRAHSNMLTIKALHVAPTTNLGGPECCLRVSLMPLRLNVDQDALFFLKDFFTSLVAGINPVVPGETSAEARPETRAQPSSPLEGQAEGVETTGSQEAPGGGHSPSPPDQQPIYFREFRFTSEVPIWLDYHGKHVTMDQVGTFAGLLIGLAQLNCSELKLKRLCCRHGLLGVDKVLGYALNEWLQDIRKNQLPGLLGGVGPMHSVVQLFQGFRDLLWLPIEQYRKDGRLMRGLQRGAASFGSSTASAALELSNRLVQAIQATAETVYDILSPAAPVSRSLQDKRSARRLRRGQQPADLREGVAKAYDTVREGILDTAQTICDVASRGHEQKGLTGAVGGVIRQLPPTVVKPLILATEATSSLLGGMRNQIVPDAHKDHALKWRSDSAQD
Sequence of echa_human HADHA (P40939 whole entry): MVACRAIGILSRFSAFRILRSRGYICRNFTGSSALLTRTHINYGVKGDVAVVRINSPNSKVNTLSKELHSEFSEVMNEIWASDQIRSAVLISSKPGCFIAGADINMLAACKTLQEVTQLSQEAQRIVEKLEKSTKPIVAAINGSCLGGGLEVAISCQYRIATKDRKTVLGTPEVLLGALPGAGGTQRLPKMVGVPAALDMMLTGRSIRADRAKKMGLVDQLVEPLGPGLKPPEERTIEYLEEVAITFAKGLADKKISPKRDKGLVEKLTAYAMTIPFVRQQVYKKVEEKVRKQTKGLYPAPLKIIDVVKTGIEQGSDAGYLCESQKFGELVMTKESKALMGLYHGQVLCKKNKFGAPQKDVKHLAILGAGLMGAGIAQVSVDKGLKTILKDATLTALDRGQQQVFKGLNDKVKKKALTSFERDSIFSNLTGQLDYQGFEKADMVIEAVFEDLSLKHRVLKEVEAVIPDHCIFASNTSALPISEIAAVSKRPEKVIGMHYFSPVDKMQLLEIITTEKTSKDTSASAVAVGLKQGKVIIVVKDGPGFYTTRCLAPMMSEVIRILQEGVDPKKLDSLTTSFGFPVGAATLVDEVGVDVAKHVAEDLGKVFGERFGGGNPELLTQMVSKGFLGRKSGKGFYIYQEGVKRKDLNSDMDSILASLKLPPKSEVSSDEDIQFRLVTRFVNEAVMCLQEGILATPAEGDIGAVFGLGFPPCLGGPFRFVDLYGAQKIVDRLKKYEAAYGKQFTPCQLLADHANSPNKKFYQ

effect of a mutation on the interaction (kbtb6_human KBTBD6)	effect of a mutation on the interaction (echa_human HADHA)	effect of a mutation on the interaction (rasf3_human RASSF3)	effect of a mutation on the interaction (tbc15_human TBC1D15)	effect of a mutation on the interaction (rn123_human RNF123)	effect of a mutation on the interaction (atg2a_human ATG2A)	effect of a mutation on the interaction (uba5_human UBA5)	Substance
decreasing interaction	increasing interaction	increasing interaction	decreasing interaction	increasing interaction	increasing interaction		Microtubule-associated protein 1 light chain 3 beta (Homo sapiens) (from UniProt Q9GZQ8) F52A;L53A
disrupting interaction	disrupting interaction	decreasing interaction	decreasing interaction	decreasing interaction	decreasing interaction	disrupting interaction	Microtubule-associated protein 1 light chain 3 beta (Homo sapiens) (from UniProt Q9GZQ8) R69A
